Blank lines part the entries; values can stand above or below the binder they belong to.
B2: mouse PD-1 (mPD-1) expressed on transfected 300 cells (receptor, UniProt Q02242 25-288, looked up)
chain: LEVPNGPWRSLTFYPAWLTVSEGANATFTCSLSNWSEDLMLNWNRLSPSNQTEKQAAFCNGLSQPVQDARFQIIQLPNRHDFHMNILDTRRNDSGIYLCGAISLHPKAKIEESPGAELVVTERILETSTRYPSPSPKPEGRFQGMVIGIMSALVGIPVLLLLAWALAVFCSTSMSEARGAGSKDDTLKEEPSAAPVPSVAYEELDFQGREKTPELPTACVHTEYATIVFTEGLGASAMGRRGSADGLQGPRPPRHEDGHCSWPL
notes: whole, on cells; also called 300-mPD-1 cells; mPD-1 cells

What was measured:
[1] = biological target: T1, recombinant hRGMb-HIS (R&D) (human, UniProt Q6NW40 46-413); assay: ELISA, coated hRGMb-HIS, PD-L2-Ig in solution
T1 construct: Bought from R&D; not shown: HIS tag
T1 sequence: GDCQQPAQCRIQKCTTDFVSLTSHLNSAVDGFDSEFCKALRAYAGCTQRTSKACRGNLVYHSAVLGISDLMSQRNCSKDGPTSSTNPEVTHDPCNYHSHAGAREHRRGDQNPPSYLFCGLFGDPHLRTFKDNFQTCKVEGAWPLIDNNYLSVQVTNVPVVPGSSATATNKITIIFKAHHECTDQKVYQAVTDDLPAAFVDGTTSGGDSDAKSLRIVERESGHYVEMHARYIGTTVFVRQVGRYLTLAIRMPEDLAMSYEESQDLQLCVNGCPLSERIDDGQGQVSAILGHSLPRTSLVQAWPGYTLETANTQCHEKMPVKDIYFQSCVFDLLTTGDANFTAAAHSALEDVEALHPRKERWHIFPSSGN
Protocol: (§1) To examine RGMa/RGMb/RGMc and PD-L2 interaction, 96-well ELISA plates were coated with 2 or 5 μg/ml of recombinant mRGMa-HIS, mRGMb-HIS, mRGMc-HIS, or hRGMb-HIS (R&D). Then, serial dilutions of mPD-L2-hIgG1/IgA, mPD-L2-mIgG2a/IgA, hPD-L2-mIgG2a or control-Ig fusion proteins were added and incubated for 1h at 37° C. Fab₂ goat anti-hIgG-HRP (Jackson ImmunoResearch Laboratories) or rat anti-mIgG2a-HRP (BD Biosciences) at 1:1000 or 1:10000 were used for detection.

[2] = biological target: T2, recombinant mRGMb-HIS (R&D) (mouse, UniProt Q7TQ33 49-415, limits assumed); assay: ELISA, coated mRGMb-HIS, PD-L2-Ig in solution
T2 construct: Bought from R&D; not shown: HIS tag
T2 sequence (looked up): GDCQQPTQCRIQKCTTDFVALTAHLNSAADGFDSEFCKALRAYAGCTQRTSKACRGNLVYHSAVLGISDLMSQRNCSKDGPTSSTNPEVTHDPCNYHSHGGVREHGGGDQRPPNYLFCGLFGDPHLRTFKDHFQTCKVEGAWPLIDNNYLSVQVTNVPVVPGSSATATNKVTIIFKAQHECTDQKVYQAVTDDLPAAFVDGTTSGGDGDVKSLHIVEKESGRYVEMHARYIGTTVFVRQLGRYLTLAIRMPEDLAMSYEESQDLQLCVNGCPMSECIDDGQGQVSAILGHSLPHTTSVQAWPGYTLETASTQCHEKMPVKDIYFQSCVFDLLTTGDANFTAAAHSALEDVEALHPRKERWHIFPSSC
Protocol: as §1

[3] = biological target: T3, mouse PD-L1 (mPD-L1) expressed on transfected 300 cells (mouse, UniProt Q9EP73 19-290); assay: cell conjugation assay, flow cytometry
T3 construct: whole, on cells; also called 300-mPDL 1; mPD-L1 cells
Protocol: (§2) An assay for receptor-ligand binding was developed based on cell to cell binding as determined by flow cytometry. One transfected cell type was labelled with the red dye PKH26 (Sigma) and the other transfected cell with the green dye PKH67 (Sigma) according to the manufacturer's instructions. Red dye-labelled and green dye-labelled cells ([…] each cell type) were incubated in 200 μl of HBSS buffer without calcium and magnesium (GIBCO) supplemented with 10% heat-inactivated FBS (Invitrogen), 15 μg/ml gentamicin (Invitrogen) and 1% HEPES (Invitrogen) in a round bottom 96-well plate for 45 min at 37° C. When the cell conjugation assay was used to test the blocking capacity of antibodies, one transfected cell type was pre-incubated 30 min at RT with antibodies before adding the other type of transfected cells. Conjugate formation was analyzed immediately by flow cytometry using the PE channel for the red dye and the FITC channel for the green dye. The automated plate harvester of the FACSCanto (BD Biosciences) was used for uniformity of cell processing. The instrument settings were as follows, throughput mode: standard, loader settings: sample flow rate at 0.5 μl/second, sample volume and mixing volume at 100 μl, mixing speed at 50 μl/second, number of mixes at 2, and wash volume at 400 μl.
(§3) To test the RGMb:PD-L2 interaction under more physiologic conditions, a cell conjugation assay was used where one transfected cell type was labeled with a red dye and the other transfected cell type with a green dye. The binding of the two cell types was assessed by flow cytometry and indicated by double positive events (yellow dots). […] FIGS. 1L, 1N, 1P, and 1R show only the dot plots without corresponding FSC-SSC plots. As expected, mRGMb cells bound to mPD-L2 cells (FIG. 1K), but not mPD-L1 cells (FIG. 1L). As positive controls, mPD-1 cells bound to both mPD-L2 and mPD-L1 cells (FIGS. 1M-1N). Negative control binding assays had very few conjugates (<0.3%) (FIGS. 1O-1R).

[4] = biological target: T4, mPD-L2-Ig fusion protein (construct not told at the result) (mouse, UniProt Q9WUL5 20-221); assay: ELISA, coated BMP-4, PD-L2-Ig added without RGMb
T4 construct: extracellular domain; not shown: Ig part: the methods name mPD-L2-hIgG1/IgA, mPD-L2-mIgG2a/IgA and mPD-L2-hIgG (R&D)
T4 sequence (looked up): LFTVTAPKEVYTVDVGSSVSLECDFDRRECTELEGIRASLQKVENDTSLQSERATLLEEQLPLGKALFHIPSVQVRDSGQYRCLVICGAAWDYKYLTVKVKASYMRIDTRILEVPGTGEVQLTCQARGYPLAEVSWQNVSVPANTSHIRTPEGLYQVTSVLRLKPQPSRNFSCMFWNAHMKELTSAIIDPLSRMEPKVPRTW
Protocol: (§4) To determine if RGMb binds PD-L2 and BMP-2/4 simultaneously, 96-well ELISA plates were coated with BMP-2/4 as above. mPD-L2-hIgG1/IgA, mPD-L2-hIgG (R&D), mPD-L1-hIgG (R&D) or control-Ig fusion proteins at 10 μg/ml were preincubated with 10 μg/ml mRGMb-HIS (R&D) or buffer alone for 15 min. at room temperature (RT), then added to the plates and incubated for 1h at 37° C. Alternatively, 10 μg/ml mRGMb-HIS (R&D) or buffer alone was added first to the plates and incubated for 1h at 37° C. After wash, mPD-L2-Ig or control-Ig fusion proteins were added and incubated for 1h at 37° C. Fab₂ goat anti-hIgG-HRP (Jackson ImmunoResearch Laboratories) at 1:10000 was used for detection.
(§5) To test if RGMb can bind both PD-L2 and BMP at the same time, an ELISA was performed to analyze the binding capacity of PD-L2-Ig fusion protein to immobilized BMP-2/4 in the presence or absence of RGMb. PD-L2 could not directly bind to BMP-2/4, but in the presence of RGMb could form a complex with BMP when RGMb and PD-L2-Ig were added simultaneously (FIG. 4A-4B) or sequentially to BMP-2/4.

[5] = biological target: T2, recombinant mRGMb-HIS (R&D); assay: ELISA, coated BMP-4, mRGMb-HIS bridging PD-L2-Ig
Protocol: as §4, §5

[6] = biological target: T4, mPD-L2-Ig fusion protein (construct not …); assay: ELISA, coated BMP-2, PD-L2-Ig added without RGMb
Protocol: as §4, §5

[7] = biological target: T2, recombinant mRGMb-HIS (R&D); assay: ELISA, coated BMP-2, mRGMb-HIS bridging PD-L2-Ig
Protocol: as §4, §5

[8] = biological target: T5, mouse RGMb (mRGMb) expressed on transfected cells (mouse, UniProt Q7TQ33 49-415); assay: cell conjugation assay, flow cytometry
T5 construct: whole, on cells; Also used for mRGMb in cell lysates (Western blot); also called DRAGON; 300-mRGMb cells
T5 sequence (looked up): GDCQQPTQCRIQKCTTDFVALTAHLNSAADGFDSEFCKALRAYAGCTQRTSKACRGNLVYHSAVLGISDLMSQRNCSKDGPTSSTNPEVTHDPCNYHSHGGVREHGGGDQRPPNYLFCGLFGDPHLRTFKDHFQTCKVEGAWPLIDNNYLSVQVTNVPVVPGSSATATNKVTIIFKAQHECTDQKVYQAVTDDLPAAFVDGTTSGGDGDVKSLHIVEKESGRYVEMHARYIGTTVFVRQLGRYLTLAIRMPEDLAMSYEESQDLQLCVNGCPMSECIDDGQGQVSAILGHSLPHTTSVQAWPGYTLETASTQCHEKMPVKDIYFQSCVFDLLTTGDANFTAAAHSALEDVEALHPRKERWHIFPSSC
Protocol: as §2, §3

[9] = biological target: B2; assay: cell conjugation assay, flow cytometry
Protocol: as §2, §3

[10] = biological target: T6, mRGMb-Ig fusion protein (mRGMb-mIgG2a) (mouse, UniProt Q7TQ33 49-415, limits assumed); assay: flow cytometry on mPD-L2 transfected 300 cells
T6 construct: extracellular domain; Purified from CHO cell culture supernatants
T6 sequence (looked up): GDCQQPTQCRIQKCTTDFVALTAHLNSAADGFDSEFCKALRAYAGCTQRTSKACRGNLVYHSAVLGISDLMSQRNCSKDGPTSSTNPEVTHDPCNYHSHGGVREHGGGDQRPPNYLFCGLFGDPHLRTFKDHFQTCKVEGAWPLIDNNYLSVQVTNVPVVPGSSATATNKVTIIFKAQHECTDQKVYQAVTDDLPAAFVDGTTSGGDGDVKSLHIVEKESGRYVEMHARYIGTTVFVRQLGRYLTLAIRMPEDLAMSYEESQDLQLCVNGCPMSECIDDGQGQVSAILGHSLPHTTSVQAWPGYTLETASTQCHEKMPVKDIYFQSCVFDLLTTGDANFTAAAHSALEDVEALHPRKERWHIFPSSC

T3 sequence (Q9EP73 19-290): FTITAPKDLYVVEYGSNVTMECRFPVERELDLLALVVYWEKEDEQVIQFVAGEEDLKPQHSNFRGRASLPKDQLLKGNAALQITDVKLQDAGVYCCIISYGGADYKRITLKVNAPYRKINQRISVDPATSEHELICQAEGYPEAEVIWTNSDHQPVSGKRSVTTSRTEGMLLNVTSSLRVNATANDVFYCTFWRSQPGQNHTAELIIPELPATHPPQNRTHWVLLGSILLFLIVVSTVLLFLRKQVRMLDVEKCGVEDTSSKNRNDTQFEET

B1: hPD-L2-mIgG2a fusion protein (Fc fusion)
chain: LFTVTVPKELYIIEHGSNVTLECNFDTGSHVNLGAITASLQKVENDTSPHRERATLLEEQLPLGKASFHIPQVQVRDEGQYQCIIIYGVAWDYKYLTLKVKASYRKINTHILKVPETDEVELTCQATGYPLAEVSWPNVSVPANTSHSRTPEGLYQVTSVLRLKPPPGRNFSCVFWNTHVRELTLASIDLQSQMEPRTHPT
notes: not shown: mouse IgG2a part
- binding result [1]: binds
- binding result [2]: binds

Binder: B2
- binding result [3]: binds

Other lines, results leading:

- binding result [4]: no binding (tested: 10 ug/ml)
- binding result [5]: binds
B3: recombinant mouse BMP-4 (R&D) (ligand, UniProt P21275 293-408, looked up)
chain: SPKHHPQRSRKKNKNCRRHSLYVDFSDVGWNDWIVAPPGYQAFYCHGDCPFPLADHLNSTNHAIVQTLVNSVNSSIPKACCVPTELSAISMLYLDEYDKVVLKNYQEMVVEGCGCR
notes: Coated on ELISA plates at 1 ug/ml; also called mBMP-4; BMP-2/4

- binding result [6]: no binding (tested: 10 ug/ml)
- binding result [7]: binds
B4: recombinant mouse BMP-2 (GIBCO) (ligand, UniProt P21274 281-394, looked up)
chain: QAKHKQRKRLKSSCKRHPLYVDFSDVGWNDWIVAPPGYHAFYCHGECPFPLADHLNSTNHAIVQTLVNSVNSKIPKACCVPTELSAISMLYLDENEKVVLKNYQDMVVEGCGCR
notes: Coated on ELISA plates at 1 ug/ml; also called mBMP-2; BMP-2/4

- binding result [8]: binds
- binding result [9]: binds
- binding result [10]: binds
B5: mouse PD-L2 (mPD-L2) expressed on transfected 300 cells (ligand, UniProt Q9WUL5 20-247, looked up)
chain: LFTVTAPKEVYTVDVGSSVSLECDFDRRECTELEGIRASLQKVENDTSLQSERATLLEEQLPLGKALFHIPSVQVRDSGQYRCLVICGAAWDYKYLTVKVKASYMRIDTRILEVPGTGEVQLTCQARGYPLAEVSWQNVSVPANTSHIRTPEGLYQVTSVLRLKPQPSRNFSCMFWNAHMKELTSAIIDPLSRMEPKVPRTWPLHVFIPACTIALIFLAIVIIQRKRI
notes: whole, on cells; also called 300-mPD-L2 cells; mPD-L2 transfected cells

Source: patent publication US20150299322A1 (Dana-Farber, published 2015)
